# Test results from US20150203579A1 (Regeneron, published 2015).
# T1: monkey PD-1 with mFc (monkey)
# T1 construct: also called monkey PD-1-mFc; monkey PD-1 dimer
# T1 chain: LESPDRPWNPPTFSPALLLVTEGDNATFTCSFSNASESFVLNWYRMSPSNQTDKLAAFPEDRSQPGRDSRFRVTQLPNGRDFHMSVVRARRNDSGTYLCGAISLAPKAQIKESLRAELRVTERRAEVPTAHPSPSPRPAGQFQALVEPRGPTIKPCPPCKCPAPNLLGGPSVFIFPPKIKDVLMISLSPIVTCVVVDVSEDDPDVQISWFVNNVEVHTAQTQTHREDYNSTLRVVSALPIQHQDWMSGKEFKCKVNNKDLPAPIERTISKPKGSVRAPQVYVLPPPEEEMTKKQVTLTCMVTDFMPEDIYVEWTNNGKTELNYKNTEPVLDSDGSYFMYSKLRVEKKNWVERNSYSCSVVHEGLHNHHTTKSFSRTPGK
# B1: H2aM7780N (antibody, V domains shown)
# VH: QVQLVESGGGVVQSGRSLRLSCAASGFTFSSYGMHWVRQAPGKGLEWVAVIWYDGSNIYYSDSVKGRFTISRANSKNTLYLQMNSLRAEDTAVYYCARPGHWNYFFEYWGQGTLVTVSS
# VL: DIQMTQSPSSLSASVGDRVTITCRASQSINNYLNWYQQKPGKAPKLLIYTASSLQSGVPSRFSGSGSGTDFTLTISSLQPEDFATYYCQQSYSTPPLTFGQGTQLEIK
# notes: human variable regions, mouse IgG2a Fc; also called H2M7780N
# B2: H4xH9034P (antibody, V domains shown)
# VH: EVQLVESGGGVVRPGGSLRLSCTASGFTFDDYGMSWVRQAPGKGLEWISGIGWTGGRSSYADSVRGRFTISRDNAKNSLYLQMNSLGAEDTALYYCARDRQWLVQWYFDYWGQGTLVTVSS
# VL: not shown
# notes: human IgG4 Fc with 2 or more amino acid changes (US20100331527); also called H4xH9034P2
# B3: H4xH9035P (antibody, V domains shown)
# VH: EVQLVESGGRVVRPGGSLRLSCAASGFTFDDYGMSWVRQLPGKGLEWVAGISWNDGKTVYAESVKGRFIISRDNAKNSLHLEMNSLRAEDTALYYCARDWQYLIDRYFDFWGQGTLVTVSS
# VL: not shown
# notes: human IgG4 Fc with 2 or more amino acid changes (US20100331527); also called H4xH9035P2
# B4: H4xH9037P (antibody, V domains shown)
# VH: EVQLVESGGGLVQPGGSLRLSCAASGFTFDDYAMHWVRQAPGKGLEWVSGIGWSSGSIGYADSVKGRFTISRDNAKNSLYLQMDSLRPEDSALYYCAKAYTFMITLYFDYWGQGTLVTVSS
# VL: not shown
# notes: human IgG4 Fc with 2 or more amino acid changes (US20100331527); also called H4xH9037P2
# B5: H2aM7788N (antibody, V domains shown)
# VH: EVQLVESGGGLVQPGGSLRLSCGASGFTFRNYDMHWVRQITGKGLEWVSAIGSAGDTYYPDSVKGRFTISRENAKNSLYLQMNSLRVGDTAVYYCTRDIHCSSTRCYGMDVWGQGTTVTVSS
# VL: not shown
# notes: human variable regions, mouse IgG2a Fc; also called H2M7788N
# B6: H4xH9045P (antibody, V domains shown)
# VH: EVQLVESGGGLVQPGRSLRLSCAASGFTFDDYDMHWVRQAPGKGLEWVSGSGWNRGSLGYADSVKGRFTISRDNAKKSLYLQMNSVRVEDTALYYCAKGFVVVSAAYFDYWGQGTLVTVSS
# VL: not shown
# notes: human IgG4 Fc with 2 or more amino acid changes (US20100331527); also called H4xH9045P2
# B7: H1M7799N (antibody, V domains shown)
# VH: EVQLVESGGGLVQPGGSLRLSCAASGFTVSNNYMSWVRQAPGKGLEWVSVIYSGGFTYYTDSVKGRFTISRHNSKNTLYLQMNSLRAEDTAVYYCARYYYDTSDYWTFFDYWGQGTLVTVSS
# VL: EIVMTQSPATLSVSPGERATLSCRASQSVSSNLAWYQQKPGQAPRLLIYGASTRATGIPARFSGSGSGTEFTLTISSLQSGDFAVYYCQQYNNWPLTFGGGTKVEIN
# notes: human variable regions, mouse IgG1 Fc
# B8: H1M7800N (antibody, V domains shown)
# VH: B7 VH
# VL: B7 VL
# notes: as for B7
# Target: T2, full length human PD-1 on HEK293/hPD-1 cells (human, UniProt Q15116 25-288)
# Test: FACS, 100 nM mAb, HEK293/hPD-1 cells;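 note: antibodies incubated with cells for 15-30 min on ice, bound antibody detected through a secondary F(ab′)2 by flow cytometry, with parental HEK293 cells tested in parallel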
row,MFI,Binder
1,23700 MFI,B1
2,10100 MFI,B2
3,9920 MFI,B3
4,8790 MFI,B4
5,23100 MFI,B5
6,8880 MFI,B6
7,6860 MFI,B7
8,6810 MFI,B8

# Target: T3, dimeric biotinylated human PD-1 protein with a C-terminal human Fc tag (human, biotinylated (sites not given))
# T3 construct: also called biot-hPD-1-hFc
# Test: competition ELISA: 200 pM biot-hPD-1-hFc to coated hPD-L1-mFc; * below theoretical bottom 1.0E-10 M
row,IC50,Binder
1,0.091 nM,B1
2,0.066 nM,B2
3,0.08 nM,B3
4,0.078 nM,B4
5,0.065 nM,B5
6,0.059 nM,B7
7,0.065 nM,B8

# Target: T2, full length human PD-1 on HEK293/hPD-1 …
# Test: FACS dose response, HEK293/hPD-1 cells
EC50,Max Geom. Mean MFI @ 100 nM,Binder
1.69 nM,18400 MFI,B1
0.209 nM,32400 MFI,B2
0.115 nM,28700 MFI,B3
0.674 nM,36400 MFI,B4
0.321 nM,14800 MFI,B5
0.0917 nM,24700 MFI,B6
0.0332 nM,24400 MFI,B7
0.048 nM,20800 MFI,B8

# Target: T4, recombinant human PD-1 dimer expressed with a C-terminal mouse IgG2a Fc tag (human)
# T4 construct: also called hPD-1-mFc
# Test: competition ELISA: 1.5 nM hPD-1-mFc to coated hPD-L1-hFc
% blocking at 200 nM antibody,IC50,Binder
94%,,B1
98%,,B2
99%,,B3
100%,0.89 nM,B4
74%,,B5
98%,,B6
82%,,B7
83%,,B8

# Target: PD-1 chimera: extracellular domain of human PD-1 with trans-membrane and cytoplasmic domains of human CD300a, … (human, UniProt Q9UGN4 181-299, limits assumed)
# Test: cell-based or functional assay
Concentration (M) of Antibody at 150% activation,Emax mean [%] @ 100 nM,Binder
6.52e-09 M,228%,B1
2.62e-09 M,202%,B2
1.2e-09 M,227%,B3
2.82e-09 M,195%,B4
4.72e-09 M,189%,B5
2.23e-08 M,176%,B6
2.97e-08 M,183%,B7
1.65e-08 M,182%,B8

# Target: T2, full length human PD-1 on HEK293/hPD-1 …
# Test: FACS, 100 nM mAb
row,ratio of MFI HEK293/hPD-1 to HEK293 parental cells,Binder
1,73.8,B1
2,69,B2
3,91.7,B3
4,81.4,B4
5,75.7,B5
6,93.7,B6
7,26.9,B7
8,24.7,B8

# Target: T5, recombinant human PD-1 expressed with a C-terminal human IgG1 Fc tag (human)
# T5 construct: also called hPD-1-hFc; hPD1-hFc
# Test: SPR Biacore 3000: 100 nM hPD-1.hFc + 500 nM mAb to captured hPD-L1.mFc;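 note: inhibition study with anti-PD-1 mAbs, SPR responses tracked in real time and read at the close of each step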
% Blocking,binding of the mixture (RU),Binder
105%,-5 RU,B2
104%,-4 RU,B3
104%,-4 RU,B4
105%,-5 RU,B6

# Target: T1, monkey PD-1 with mFc
# Test: SPR, captured mAb, 25 C;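 note: purified anti-PD-1 antibodies tested on Biacore 4000 or T200 instruments, rate constants obtained via 1:1 binding model fit, with KD as kd/ka and half-life as ln2/(60·kd)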
100 nM Monkey PD-1-mFc Bound (RU),Kd,koff,kon,t1/2,Binder
95 RU,0.818 nM,0.000166 s⁻¹,203000 M⁻¹ s⁻¹,70 min,B2
78 RU,0.46 nM,9.96e-05 s⁻¹,216000 M⁻¹ s⁻¹,116 min,B3
58 RU,0.912 nM,0.000137 s⁻¹,150000 M⁻¹ s⁻¹,84 min,B4
78 RU,1.72 nM,0.000168 s⁻¹,97800 M⁻¹ s⁻¹,69 min,B6

# Target: T1, monkey PD-1 with mFc
# Test: SPR, captured mAb, 37 C;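 note: Real-time Biacore surface plasmon resonance biosensor readout of PD-1 reagent binding to purified anti-PD-1 monoclonal antibodies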
100 nM Monkey PD-1-mFc Bound (RU),Kd,koff,kon,t1/2,Binder
81 RU,2.44 nM,0.000749 s⁻¹,307000 M⁻¹ s⁻¹,15 min,B2
40 RU,1.7 nM,0.000623 s⁻¹,367000 M⁻¹ s⁻¹,19 min,B3
24 RU,3.21 nM,0.000897 s⁻¹,280000 M⁻¹ s⁻¹,13 min,B4
65 RU,5.66 nM,0.00136 s⁻¹,241000 M⁻¹ s⁻¹,8 min,B6

# Target: T6, recombinant human PD-L1 expressed with a C-terminal mouse IgG2a Fc tag (human)
# T6 construct: also called hPD-L1-mFc; hPD-L1.mFc
# Test: SPR Biacore 3000: 500 nM mAb alone (no hPD-1.hFc) over captured hPD-L1.mFc surface, control
row,500 nM of anti-PD-1 monoclonal antibody (RU),Binder
1,-4 RU,B2
2,-3 RU,B3
3,-4 RU,B4
4,-4 RU,B6

# Target: T3, dimeric biotinylated human PD-1 protein …
# Test: competition ELISA: 200 pM biot-hPD-1-hFc to coated hPD-L1-mFc
% blocking at 50 nM antibody,IC50,Binder
100%,,B1
96%,,B2
95%,,B3
95%,,B4
100%,,B5
95%,0.13 nM,B6
100%,,B7
99%,,B8

# Target: T4, recombinant human PD-1 dimer expressed …
# Test: competition ELISA: 1.5 nM hPD-1-mFc to coated hPD-L1-hFc; * below theoretical bottom 7.5E-10 M
row,IC50,Binder
1,0.69 nM,B1
2,0.51 nM,B2
3,0.62 nM,B3
4,0.22 nM,B5
5,0.28 nM,B6
6,0.22 nM,B7
7,0.6 nM,B8

# Target: T4, recombinant human PD-1 dimer expressed …
# Test: BLI Octet: 100 nM hPD-1-mFc + 500 nM mAb to captured hPD-L1-hFc
% Blocking,binding of the mixture (nm),Binder
114%,-0.01 nm,B1
100%,0 nm,B5
100%,0 nm,B7
100%,0 nm,B8
